Holding throughout (parameters): concentration or dose not given beside the values
Assay [1] deals with T1, hOrai1-mOrai1 ECL2 (RPTSKPPA) protein (human/mouse chimera, UniProt Q96D31 1-301).
T1 construct: also called Ch
The experiment in a line: FACS, 293EBNA, RFI-POC grade. For orientation: Flow cytometry measures light scatter and fluorescence of single cells or particles in a stream.

In assay [2] the target is T2, hOrai1-mOrai1 ECL2 (…) protein (human/mouse chimera, UniProt Q96D31 1-301).
T2 construct: also called Ch
The experiment in a line: FACS, 293EBNA, RFI-POC grade.
T2 sequence (Q96D31 other isoform, or with tags, fused parts or gaps): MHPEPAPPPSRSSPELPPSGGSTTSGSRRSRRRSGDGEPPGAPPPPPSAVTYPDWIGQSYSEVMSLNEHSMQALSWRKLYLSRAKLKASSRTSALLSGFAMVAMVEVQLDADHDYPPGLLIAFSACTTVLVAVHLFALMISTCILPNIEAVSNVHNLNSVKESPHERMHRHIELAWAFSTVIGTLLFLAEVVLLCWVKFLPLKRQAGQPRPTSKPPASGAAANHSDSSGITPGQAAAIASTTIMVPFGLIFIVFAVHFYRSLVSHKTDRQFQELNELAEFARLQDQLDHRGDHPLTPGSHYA

The target in assay [3] is T3, hOrai1-mOrai1 ECL2 (…) protein (human/mouse chimera, UniProt Q96D31 1-301).
T3 construct: also called Ch
The experiment in a line: FACS, 293EBNA, RFI-POC grade. This is another data set of the same source.
T3 sequence (Q96D31 other isoform, or with tags, fused parts or gaps): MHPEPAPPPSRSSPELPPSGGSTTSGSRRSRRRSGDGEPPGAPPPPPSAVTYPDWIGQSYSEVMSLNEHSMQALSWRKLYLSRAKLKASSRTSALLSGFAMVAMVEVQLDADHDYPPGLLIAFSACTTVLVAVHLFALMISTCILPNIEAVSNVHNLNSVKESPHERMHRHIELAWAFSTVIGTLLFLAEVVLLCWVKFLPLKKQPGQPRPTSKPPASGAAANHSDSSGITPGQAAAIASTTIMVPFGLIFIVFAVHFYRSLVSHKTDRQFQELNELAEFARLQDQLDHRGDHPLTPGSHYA

Assay [4] has as its target T4, mOrai1-hOrai1 ECL2 chimeric protein (human/mouse chimera, UniProt Q8BWG9 1-304 (mouse entry)).
T4 construct: mouse Orai1 with human ECL2; also called Ch
The experiment in a line: FACS, 293EBNA, RFI-POC grade.

For assay [5], the target named is T5, hOrai1-mOrai1 ECL2 (…) protein (human/mouse chimera, UniProt Q96D31 1-301).
T5 construct: also called Ch
The experiment in a line: FACS, 293EBNA, RFI-POC grade. This is another data set of the same source.

The target in assay [6] is T6, hOrai1-mOrai1 ECL2 (SKPPA) protein (human/mouse chimera, UniProt Q96D31 1-301).
T6 construct: also called Ch
T6 sequence (Q96D31 other isoform, or with tags, fused parts or gaps): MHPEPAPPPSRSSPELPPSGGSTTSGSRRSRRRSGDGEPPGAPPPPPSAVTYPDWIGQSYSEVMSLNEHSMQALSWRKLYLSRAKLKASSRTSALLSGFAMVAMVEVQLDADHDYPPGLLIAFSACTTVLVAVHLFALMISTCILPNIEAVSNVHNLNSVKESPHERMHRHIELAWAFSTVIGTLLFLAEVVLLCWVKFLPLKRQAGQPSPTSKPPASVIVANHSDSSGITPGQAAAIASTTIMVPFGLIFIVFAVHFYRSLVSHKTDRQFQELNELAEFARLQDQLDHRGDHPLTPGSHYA
The experiment in a line: FACS, 293EBNA, RFI-POC grade.

Assay [7] concerns the target T7, hOrai1-mOrai1 ECL2 (…) protein (human/mouse chimera, UniProt Q96D31 1-301).
T7 construct: also called Ch
Description: FACS, 293EBNA. The text has this: (§1) FIG. 17A-D illustrates the results of FACS analysis showing binding to the indicated mOrai1-hOrai1 ECL2 chimeric mutants expressed on the surface of HEK-293-EBNA cells. Transfected cells were stained first with recombinant monoclonal antibodies then counter-stained with a secondary phycoerythrin-labeled goat (“Gt”) anti-human (“Hu”) IgG F(ab′)₂ antibody fragment and visualized using FACS.
(§2) Representative results of FACS analysis of binding to the mutant hOrai1-mOrai1 ECL2 chimera described above by exemplary anti-hOrai1 antibodies of the present invention are shown in FIG. 17A-D, Table 10A and Table 10B below. Table 10A (Campaign 1) and Table 10B (Campaign 2) show the gain in binding ability of exemplary monoclonal antibodies to hOrai 1-mOrai 1 ECL2 chimera mutants as determined by FACS.
T7 sequence (Q96D31 other isoform, or with tags, fused parts or gaps): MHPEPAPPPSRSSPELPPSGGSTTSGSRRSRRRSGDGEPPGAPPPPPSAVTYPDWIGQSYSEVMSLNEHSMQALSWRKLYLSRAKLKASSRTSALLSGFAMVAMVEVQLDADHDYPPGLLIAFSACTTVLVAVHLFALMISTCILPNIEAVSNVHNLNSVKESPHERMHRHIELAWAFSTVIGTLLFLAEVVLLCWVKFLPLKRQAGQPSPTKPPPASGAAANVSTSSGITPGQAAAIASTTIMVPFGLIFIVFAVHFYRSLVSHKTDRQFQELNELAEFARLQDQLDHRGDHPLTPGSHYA

Assay [8] concerns the target T8, hOrai1-mOrai1 ECL2 (VST) protein (human/mouse chimera, UniProt Q96D31 1-301).
T8 construct: also called Ch
The experiment in a line: FACS, 293EBNA.
Source text: as §1, §2

In assay [9] the target is T9, hOrai1-mOrai1 ECL2 (GAA) protein (human/mouse chimera, UniProt Q96D31 1-301).
T9 construct: also called Ch
T9 sequence (Q96D31 other isoform, or with tags, fused parts or gaps): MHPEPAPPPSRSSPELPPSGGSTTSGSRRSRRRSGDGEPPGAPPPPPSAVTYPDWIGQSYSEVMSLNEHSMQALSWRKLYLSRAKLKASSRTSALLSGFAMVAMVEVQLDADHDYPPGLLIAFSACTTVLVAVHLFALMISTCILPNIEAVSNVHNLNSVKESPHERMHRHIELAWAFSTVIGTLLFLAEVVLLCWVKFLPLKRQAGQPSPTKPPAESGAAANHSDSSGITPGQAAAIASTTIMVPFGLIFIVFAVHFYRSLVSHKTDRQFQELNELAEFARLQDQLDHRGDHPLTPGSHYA
Description: FACS, 293EBNA.
Source text: as §1, §2

For assay [10], the target named is T10, hOrai1-mOrai1 ECL2 chimeric protein (human/mouse chimera, UniProt Q96D31 1-301).
T10 construct: human Orai1 with mouse ECL2; also called Ch
T10 sequence (Q96D31 other isoform, or with tags, fused parts or gaps mutant): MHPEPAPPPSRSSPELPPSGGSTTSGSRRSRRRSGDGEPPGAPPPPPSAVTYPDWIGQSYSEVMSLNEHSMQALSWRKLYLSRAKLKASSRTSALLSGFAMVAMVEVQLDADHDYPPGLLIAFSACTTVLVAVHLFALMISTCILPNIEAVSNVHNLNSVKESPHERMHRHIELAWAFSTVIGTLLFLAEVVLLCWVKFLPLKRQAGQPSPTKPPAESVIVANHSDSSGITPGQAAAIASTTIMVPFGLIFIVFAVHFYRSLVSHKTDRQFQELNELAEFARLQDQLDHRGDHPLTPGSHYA
Description: FACS, 293EBNA.
Source text: as §1, §2

For assay [11], the target named is T11, hOrai1-mOrai1 ECL2 (AANVST) protein (human/mouse chimera, UniProt Q96D31 1-301).
T11 construct: also called Ch
T11 sequence (Q96D31 other isoform, or with tags, fused parts or gaps): as the sequence (Q96D31 other isoform, or with tags, fused parts or gaps mutant) above, with V221A, H224V, D226T counted along it
Description: FACS, 293EBNA.
Source text: as §1, §2

Assay [12] has as its target T12, hOrai1-mOrai1 ECL2 (PASGAA) protein (human/mouse chimera, UniProt Q96D31 1-301).
T12 construct: also called Ch
The experiment in a line: FACS, 293EBNA.
Source text: as §1, §2

The target in assay [13] is T13, mOrai1-hOrai1 ECL2 (SPTKPPAE) protein (human/mouse chimera, UniProt Q8BWG9 1-304 (mouse entry)).
T13 construct: also called Ch
T13 sequence (Q8BWG9 other isoform, or with tags, fused parts or gaps): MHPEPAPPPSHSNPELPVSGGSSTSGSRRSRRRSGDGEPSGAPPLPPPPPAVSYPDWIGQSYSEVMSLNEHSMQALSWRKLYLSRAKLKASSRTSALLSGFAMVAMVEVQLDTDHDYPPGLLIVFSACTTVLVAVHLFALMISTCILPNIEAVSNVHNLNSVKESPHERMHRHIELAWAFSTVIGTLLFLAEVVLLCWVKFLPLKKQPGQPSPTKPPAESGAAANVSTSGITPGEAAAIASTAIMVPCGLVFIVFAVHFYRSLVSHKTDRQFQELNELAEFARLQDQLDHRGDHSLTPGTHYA
The experiment in a line: FACS, 293EBNA. The text has this:
(§3) FIG. 16A-D illustrates the results of FACS analysis showing binding to the indicated mOrai1-hOrai1 ECL2 chimeric mutants expressed on the surface of HEK-293-EBNA cells. Transfected cells were stained first with recombinant monoclonal antibodies then counter-stained with a secondary phycoerythrin-labeled goat (“Gt”) anti-human (“Hu”) IgG F(ab′)₂ antibody fragment and visualized using FACS. In FIG. 16B and FIG. 16D, The values of Relative Fluorescence Intensity as Percent of Control (RFI-POC) are calculated from the relative fluorescence intensity geometric mean (Geo Mean). The geometric mean is an average calculated by multiplying a series of numbers and taking the nth root where n is the number of numbers in the series. It is a statistical average of a set of transformed numbers often used to represent a central tendency in a highly variable data set that minimizes the effects of extreme values.
(§4) Table 11A and Table 11B feature a schematic representation of the POC data from FIG. 16B and FIG. 16D, respectively, where the binding results are recorded as (+++) denoting binding POC from 40% to 100%, (++) for POC of 5% to less than 40%, (+) for POC from 1% to less than 5% and (−) as lack of binding with POC less than 1%.

The target in assay [14] is T14, mOrai1-hOrai1 ECL2 (…) protein (human/mouse chimera, UniProt Q8BWG9 1-304 (mouse entry)).
T14 construct: also called Ch
The experiment in a line: FACS, 293EBNA.
Source text: as §3, §4
T14 sequence (Q8BWG9 other isoform, or with tags, fused parts or gaps): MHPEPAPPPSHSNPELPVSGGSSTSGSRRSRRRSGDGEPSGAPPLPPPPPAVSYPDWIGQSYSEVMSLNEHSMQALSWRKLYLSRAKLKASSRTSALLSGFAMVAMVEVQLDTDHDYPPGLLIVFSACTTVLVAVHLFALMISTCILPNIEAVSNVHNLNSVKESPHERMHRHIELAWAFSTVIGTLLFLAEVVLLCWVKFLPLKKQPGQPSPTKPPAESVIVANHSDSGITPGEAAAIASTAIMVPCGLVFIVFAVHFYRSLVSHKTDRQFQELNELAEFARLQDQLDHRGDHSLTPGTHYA

Assay [15] addresses T15, mOrai1-hOrai1 ECL2 (…) protein (human/mouse chimera, UniProt Q8BWG9 1-304 (mouse entry)).
T15 construct: also called Ch
Description: FACS, 293EBNA.
Source text: as §3, §4
The source holds these as a separate data set.
T15 sequence (Q8BWG9 other isoform, or with tags, fused parts or gaps): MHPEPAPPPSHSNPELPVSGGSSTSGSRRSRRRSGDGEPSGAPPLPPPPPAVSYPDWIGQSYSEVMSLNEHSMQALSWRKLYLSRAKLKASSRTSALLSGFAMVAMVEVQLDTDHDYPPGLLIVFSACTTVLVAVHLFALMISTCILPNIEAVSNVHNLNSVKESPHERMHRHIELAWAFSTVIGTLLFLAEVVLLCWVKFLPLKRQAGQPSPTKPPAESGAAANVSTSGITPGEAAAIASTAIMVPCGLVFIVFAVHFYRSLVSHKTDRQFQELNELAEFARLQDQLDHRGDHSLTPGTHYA

The target in assay [16] is T16, mOrai1-hOrai1 ECL2 (…) protein (human/mouse chimera, UniProt Q8BWG9 1-304 (mouse entry)).
T16 construct: also called Ch
Description: FACS, 293EBNA.
Source text: as §3, §4
This is another data set of the same source.
T16 sequence (Q8BWG9 other isoform, or with tags, fused parts or gaps): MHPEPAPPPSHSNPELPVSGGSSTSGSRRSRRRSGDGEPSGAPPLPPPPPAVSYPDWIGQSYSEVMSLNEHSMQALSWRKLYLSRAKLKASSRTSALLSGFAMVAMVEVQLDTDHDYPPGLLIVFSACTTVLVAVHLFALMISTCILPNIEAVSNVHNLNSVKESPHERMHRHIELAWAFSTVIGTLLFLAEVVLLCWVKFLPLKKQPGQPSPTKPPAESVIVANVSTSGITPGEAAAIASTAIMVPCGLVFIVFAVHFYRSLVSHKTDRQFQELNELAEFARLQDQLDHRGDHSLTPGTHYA

The target of assay [17] is T10, hOrai1-mOrai1 ECL2 chimeric protein. Description: FACS, 293EBNA.
Source text: as §3, §4
The source holds these as a separate data set.

In assay [18] the target is T17, mOrai1-hOrai1 ECL2 (KPPAE) protein (human/mouse chimera, UniProt Q8BWG9 1-304 (mouse entry)).
T17 construct: also called Ch
T17 sequence (Q8BWG9 other isoform, or with tags, fused parts or gaps): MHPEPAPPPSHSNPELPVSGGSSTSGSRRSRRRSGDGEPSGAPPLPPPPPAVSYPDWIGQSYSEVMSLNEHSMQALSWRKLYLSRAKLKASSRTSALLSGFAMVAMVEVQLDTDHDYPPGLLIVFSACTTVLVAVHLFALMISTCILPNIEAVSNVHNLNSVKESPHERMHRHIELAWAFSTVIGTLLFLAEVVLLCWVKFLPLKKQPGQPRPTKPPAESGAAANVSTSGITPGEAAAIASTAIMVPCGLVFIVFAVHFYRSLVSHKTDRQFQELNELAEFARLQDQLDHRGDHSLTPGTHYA
Description: FACS, 293EBNA.
Source text: as §3, §4

For assay [19], the target named is T18, mOrai1-hOrai1 ECL2 (AESVIV) protein (human/mouse chimera, UniProt Q8BWG9 1-304 (mouse entry)).
T18 construct: also called Ch
The experiment in a line: FACS, 293EBNA.
Source text: as §3, §4

Assay [20] has as its target T19, mOrai1-hOrai1 ECL2 (…) protein (human/mouse chimera, UniProt Q8BWG9 1-304 (mouse entry)).
T19 construct: also called Ch
Description: FACS, 293EBNA.
Source text: as §3, §4
The source holds these as a separate data set.

T8 sequence (Q96D31 other isoform, or with tags, fused parts or gaps): as the sequence (Q96D31 other isoform, or with tags, fused parts or gaps mutant) above, with H224V, D226T counted along it
T1 sequence (Q96D31 other isoform, or with tags, fused parts or gaps): as the sequence (Q96D31 other isoform, or with tags, fused parts or gaps mutant) above, with S210R, K213S, P214K, A216P, E217A counted along it
T4 sequence (Q8BWG9 other isoform, or with tags, fused parts or gaps mutant): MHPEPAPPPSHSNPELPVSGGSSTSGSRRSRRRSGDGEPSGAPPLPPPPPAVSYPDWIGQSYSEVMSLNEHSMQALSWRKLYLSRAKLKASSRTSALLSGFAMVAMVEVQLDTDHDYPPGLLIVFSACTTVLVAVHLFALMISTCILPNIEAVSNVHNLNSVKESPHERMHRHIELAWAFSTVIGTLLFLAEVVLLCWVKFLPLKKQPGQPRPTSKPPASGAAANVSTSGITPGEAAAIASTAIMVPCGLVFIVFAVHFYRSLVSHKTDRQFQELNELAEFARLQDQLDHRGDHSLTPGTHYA
T12 sequence (Q96D31 other isoform, or with tags, fused parts or gaps): as the sequence (Q96D31 other isoform, or with tags, fused parts or gaps mutant) above, with A216P, E217A, V219G, I220A, V221A counted along it

B1: mAb 2D2.1 (antibody, human IgG2, lambda, V domains shown)
VH: QVQLQQWGAGLLKPSETLSLTCAVYGGSFSGYYWSWIRQPPGKGLEWIGEIDHSGRINYNPALKSRLTISVDTSKNQFSLKLSSVTAADTAVYYCARAGSGGYEDWFDPWGQGTLVTVSS
VL: QSVLTQPPSVSGAPGQRVTISCTGSSSNIGAGYNVHWYQQFPRTDPKLLIYVYNIRPSGVPDRFSGSRSGTSASLAITGLQTEDEADYYCQSYDSSLSGVVFGGGTKLTVLG
notes: fully human IgG2 lambda, Campaign 1; also called mAb 2D.1
With B1, the “percent of control (POC) of FACS Geo Mean” value (“percent … of FACS Geo Mean” below) in assay [1] was in the range of 40 to 100%; in assay [2], 40 to 100%; in assay [3], 40 to 100%; in [4], 40 to 100%; in assay [5], 40 to 100%; in [6] it was 5 to 40%. The “percent … of FACS Geo Mean” value in assay [7], in assay [8], in assay [9], in [10], in assay [11] and in [12] was less than 1% throughout. For the same molecule, the “POC (percent of control, FACS Geo Mean relative to Ch. 1)” value in [13], in assay [14], in assay [15], in assay [16], in [17] and in assay [18] was less than 1% in each case. The “POC (percent of control, FACS Geo Mean relative to binding to Ch. 1)” value in assay [13], in assay [14], in [15], in [16], in assay [17] and in [18] was less than 1% throughout.

B2: mAb 2B7.1 (antibody, human IgG2, V domains shown)
VH: QVQLQQWGAGLLKPSETLSLTCAVYGGSFSGYYWSWIRQPPGKGLEWIGEIDHSGSTNYNPALKSRLTISVDTSKNQFSLKLSSVTAADTAVYYCARAGSGGYEDWFDPWGQGTLVTVSS
VL: QSVLTQPPSVSGAPGQRVTISCTGSSSNIGTGYNVHWYQQFPRTDPKLLIYVYNIRPSGVPDRFSGSRSGTSASLAITGLQTEDEADYYCQSYDSSLSGVVFGGGTKLTVLG
notes: fully human, Campaign 1
Consider B2, for which the “POC (percent of control, FACS Geo Mean relative to Ch. 1)” value in assay [13], in assay [14], in assay [15], in assay [16], in assay [17] and in [18] was less than 1% throughout.

B3: mAb 2C1.1 (antibody, human IgG2, lambda, V domains shown)
VH: QVQLQQWGAGLLKPSETLSLTCAVYGGSFSGYYWSWIRQPPGKGLEWIGEIDHSGSTNYNPALKSRLTISVDTSKNQFSLKLSSVTAADTAVYYCARAGSGGYEDWFDPWGQGTLVTVSS
VL: QSVLTQPPSVSGAPGQRVTISCTGSSSNIGAGYNVHWYQQFPRTDPKLLIYVYNIRPSGVPDRFSGSRSGTSASLAITGLQTEDEADYYCQSYDSSLSGVVFGGGTKLTVLG
notes: fully human IgG2 lambda, Campaign 1; tested hybridoma-purified and recombinant; also called anti-hOrai1 mAb 2C1.1
For the molecule B3, the “POC (percent of control, FACS Geo Mean relative to Ch. 1)” value in assay [13], in [14], in assay [15], in assay [16], in assay [17] and in assay [18] was less than 1% throughout.

B4: mAb 2B4.1 (antibody, human IgG2, lambda, V domains shown)
VH: QVQLVQSGAEVKKPGASVKVSCKASGYTFTDYYMHWVRQAPGQGLEWMGWINPNSGGTNYVQKFQDRVTMTRDTSITTAYMELTRLRSDDTAVYYCAREEGDYGMDVWGQGTTVTVSS
VL: QSVLTQPPSVSGAPGQRVTISCTGSNSNIGTGYDVHWYQKLPGTAPRLLIYSHFNRPSGVPDRFSGSTSGTSASLAITGLQAEDEADYYCQSYDSSLSGSVFGGGTKLTVLG
As to B4, the “POC (percent of control, FACS Geo Mean relative to Ch. 1)” value in assay [13], in assay [19], in [14], in [15], in assay [16] and in assay [20] was less than 1% each time. Besides, the “POC (percent of control, FACS Geo Mean relative to Ch. 1)” value in [17] and in assay [18] was less than 1% each time.

B5: mAb 5B1.1 (antibody, human IgG2, lambda, V domains shown)
VH: QVQLVQSGAEVKKPGASVKVSCKASGYTFTDYYINWVRQAPGQGLEWMGWINPNSGGSSYAQKFQGRVTMTRDTSISTAHMELIRLRSDDTAVYYCARERGGIEDWFDPWGQGTLVTVSS
VL: QSVLTQPPSVSGAPGQRVTISCTGSSSNIGAGYDVHWYQQLPGTAPKLLIYGNSNRPSGVPDRFSGSKSGTSASLAITKFQAEDEAVYYCQSYGSGLSGVVFGGGTKLTVLG
notes: fully human IgG2 lambda, Campaign 2; also called mAb 5Bl1.1
Consider B5, for which the “percent … of FACS Geo Mean” value in assay [1] was in the range of 40 to 100%; in assay [2], 40 to 100%; in assay [3], 40 to 100%; in assay [4] it was 40 to 100%; in assay [5] it was 40 to 100%; in [6], 5 to 40%. In addition, the “percent … of FACS Geo Mean” value in assay [7], in [8], in [9], in assay [10], in assay [11] and in [12] was less than 1% each time. Besides, the “POC (percent of control, FACS Geo Mean relative to binding to Ch. 1)” value in [13], in assay [14], in [15], in assay [16], in assay [17] and in [18] was less than 1% throughout.

(Values after patent publication US20120231006A1 (Amgen, published 2012).)
